Experimental data taken from US20050037394.

Key:
Test in all cases: filter
IgE (Homo sapiens) = details: 2'-OMe C,U; 2'-OH A,G; approximately 500 nM or higher
IFN-gamma (Homo sapiens) = target: T1, IFN-gamma (Homo sapiens) (UniProt P01579); details: dRmY: deoxy A,G, 2'-OMe C,U
T1 sequence: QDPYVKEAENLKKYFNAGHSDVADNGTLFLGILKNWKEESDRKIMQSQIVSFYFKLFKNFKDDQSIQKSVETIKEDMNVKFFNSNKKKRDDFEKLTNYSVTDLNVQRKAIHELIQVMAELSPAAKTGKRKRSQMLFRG

[1] = target: Complement C5 full length (Homo sapiens) (UniProt P01031+P01031); details: dRmY: deoxy A,G, 2'-OMe C,U, plateau about 10%
Chain of Complement C5 full length (Homo sapiens) (P01031 19-673, chain 1 of 2): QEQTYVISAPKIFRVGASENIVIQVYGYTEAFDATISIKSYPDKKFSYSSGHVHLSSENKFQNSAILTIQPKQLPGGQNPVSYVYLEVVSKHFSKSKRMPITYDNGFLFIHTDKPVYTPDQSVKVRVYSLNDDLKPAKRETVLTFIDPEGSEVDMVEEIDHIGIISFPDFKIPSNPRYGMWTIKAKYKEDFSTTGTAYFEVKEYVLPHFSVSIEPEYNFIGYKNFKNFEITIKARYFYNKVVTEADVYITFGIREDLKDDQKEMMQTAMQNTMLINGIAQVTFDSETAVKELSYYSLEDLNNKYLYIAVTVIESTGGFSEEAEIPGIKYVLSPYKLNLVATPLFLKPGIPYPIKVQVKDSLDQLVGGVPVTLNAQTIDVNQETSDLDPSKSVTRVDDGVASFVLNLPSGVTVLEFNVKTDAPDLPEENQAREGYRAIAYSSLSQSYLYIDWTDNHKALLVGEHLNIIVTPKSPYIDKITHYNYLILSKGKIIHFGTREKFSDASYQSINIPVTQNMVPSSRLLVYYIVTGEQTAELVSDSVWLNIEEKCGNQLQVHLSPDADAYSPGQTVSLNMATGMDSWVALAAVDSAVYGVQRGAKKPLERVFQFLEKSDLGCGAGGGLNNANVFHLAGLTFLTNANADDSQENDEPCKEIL
Chain of Complement C5 full length (Homo sapiens) (P01031 678-1676, chain 2 of 2): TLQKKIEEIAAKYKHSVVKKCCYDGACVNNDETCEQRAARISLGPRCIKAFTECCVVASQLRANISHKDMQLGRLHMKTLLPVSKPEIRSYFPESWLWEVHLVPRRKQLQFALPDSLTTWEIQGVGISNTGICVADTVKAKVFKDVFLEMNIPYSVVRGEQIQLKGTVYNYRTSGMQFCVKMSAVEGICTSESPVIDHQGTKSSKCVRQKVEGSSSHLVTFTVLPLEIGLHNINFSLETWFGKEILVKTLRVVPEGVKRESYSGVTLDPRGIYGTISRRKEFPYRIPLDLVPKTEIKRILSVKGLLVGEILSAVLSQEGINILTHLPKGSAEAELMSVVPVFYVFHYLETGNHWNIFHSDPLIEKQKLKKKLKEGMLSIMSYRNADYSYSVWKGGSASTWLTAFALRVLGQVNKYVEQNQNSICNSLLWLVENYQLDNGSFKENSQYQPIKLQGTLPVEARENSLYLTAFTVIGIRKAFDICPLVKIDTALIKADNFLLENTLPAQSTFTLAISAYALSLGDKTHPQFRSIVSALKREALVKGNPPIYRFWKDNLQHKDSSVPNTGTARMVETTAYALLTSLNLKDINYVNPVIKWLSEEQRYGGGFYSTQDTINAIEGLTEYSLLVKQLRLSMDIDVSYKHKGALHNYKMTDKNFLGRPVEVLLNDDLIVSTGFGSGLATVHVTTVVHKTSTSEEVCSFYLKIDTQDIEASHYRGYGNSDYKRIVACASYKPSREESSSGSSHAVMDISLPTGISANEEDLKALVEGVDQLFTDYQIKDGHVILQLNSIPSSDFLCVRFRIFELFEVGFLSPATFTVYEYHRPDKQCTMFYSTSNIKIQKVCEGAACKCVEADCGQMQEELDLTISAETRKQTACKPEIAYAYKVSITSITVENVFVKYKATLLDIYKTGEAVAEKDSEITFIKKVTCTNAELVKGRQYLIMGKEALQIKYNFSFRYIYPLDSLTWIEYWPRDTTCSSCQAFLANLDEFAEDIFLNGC

IL-23 (Homo sapiens) = IL-23 (Homo sapiens) (UniProt Q9NPF7+P29460); details: approximately 500 nM or higher, DPBS, 0.1 mg/ml tRNA
Chain of IL-23 (Homo sapiens) (Q9NPF7 20-189, chain 1 of 2): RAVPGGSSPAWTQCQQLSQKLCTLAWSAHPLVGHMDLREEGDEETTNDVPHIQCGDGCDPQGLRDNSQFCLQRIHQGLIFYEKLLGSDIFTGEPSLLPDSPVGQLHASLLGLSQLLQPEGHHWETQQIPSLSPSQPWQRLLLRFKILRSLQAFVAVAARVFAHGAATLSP
Chain of IL-23 (Homo sapiens) (P29460 23-328, chain 2 of 2): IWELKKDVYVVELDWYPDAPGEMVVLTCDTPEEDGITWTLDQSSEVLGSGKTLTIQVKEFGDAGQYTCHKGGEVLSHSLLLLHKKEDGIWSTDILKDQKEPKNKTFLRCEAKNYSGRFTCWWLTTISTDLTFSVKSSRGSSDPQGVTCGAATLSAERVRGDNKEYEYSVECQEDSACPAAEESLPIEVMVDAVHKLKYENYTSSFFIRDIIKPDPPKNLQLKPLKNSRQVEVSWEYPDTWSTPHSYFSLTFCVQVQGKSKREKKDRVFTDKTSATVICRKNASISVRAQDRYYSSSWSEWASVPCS

PDGF-BB (Homo sapiens) = PDGF-BB (Homo sapiens) (UniProt P01127); details: 2'-OMe A,C,U; 2'-OH G; approximately 950 nM or higher; naive pool also binds PDGF-BB
Chain of PDGF-BB (Homo sapiens) (P01127 82-190): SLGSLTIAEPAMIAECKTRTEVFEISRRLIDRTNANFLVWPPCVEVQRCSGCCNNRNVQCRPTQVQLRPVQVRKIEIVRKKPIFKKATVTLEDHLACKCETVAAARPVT

[2] = high salt selection (250 mM NaCl)

GGGAGAGGAGAGAACGUUCUACNNNNNNNNNNNNNNNNNNNNNNNNNNNNNNCGCUGUCGAUCGAUCGAUCGAUG [IgE rRmY round 6 pool]
Kd (IgE (Homo sapiens)): > 500 nM

GGGAGAGGAGAGAACGUUCUACNNNNNNNNNNNNNNNNNNNNNNNNNNNNNNGGUCGAUCGAUCGAUCAUCGAUG [IFN-gamma round 12 dRmY pool, high salt]
Kd (IFN-gamma (Homo sapiens); [2]): 590 nM

GGGAGAGGAGAGAACGUUCUACNNNNNNNNNNNNNNNNNNNNNNNNNNNNNNGGUCGAUCGAUCGAUCAUCGAUG [C5 partially trypsinized selection round 10 dRmY pool]
Kd ([1]; selection on partially trypsinized C5): 150 nM

GGGAGAGGAGAGAACGUUCUACNNNNNNNNNNNNNNNNNNNNNNNNNNNNNNGGUCGAUCGAUCGAUCAUCGAUG [IFN-gamma round 10 dRmY pool, normal stringency]
Kd (IFN-gamma (Homo sapiens); 1x DPBS, tRNA, ssDNA, BSA): 605 nM

GGGAGAGGAGAGAACGUUCUACNNNNNNNNNNNNNNNNNNNNNNNNNNNNNNGGUCGAUCGAUCGAUCAUCGAUG [IFN-gamma round 12 dRmY pool, normal stringency]
Kd (IFN-gamma (Homo sapiens); 1x DPBS, tRNA, ssDNA, BSA): 445 nM

GGGAGAGGAGAGAACGUUCUACNNNNNNNNNNNNNNNNNNNNNNNNNNNNNNGGUCGAUCGAUCGAUCAUCGAUG [IFN-gamma round 10 dRmY pool, high salt]
Kd (IFN-gamma (Homo sapiens); [2]): 675 nM

GGGNGNGGNGNGNNCGUUCUNCNNNNNNNNNNNNNNNNNNNNNNNNNNNNNNCGCUGUCGNUCGNUCGNUCGNUG [IL-23 rGmH round 10 pool]
Kd (IL-23 (Homo sapiens); 2'-OMe A,C,U, 2'-OH G): > 500 nM

GGGAGAGGAGAGAACGUUCUACNNNNNNNNNNNNNNNNNNNNNNNNNNNNNNGGUCGAUCGAUCGAUCAUCGAUG [C5 full-length selection round 10 dRmY pool]
Kd ([1]; 1x DPBS, tRNA and salmon sperm DNA competitor): 115 nM

GGGAGAGGAGAGAACGUUCUACNNNNNNNNNNNNNNNNNNNNNNNNNNNNNNCGCUGUCGAUCGAUCGAUCGAUG [IL-23 rRmY round 9 pool]
Kd (IL-23 (Homo sapiens); 2'-OMe C,U, 2'-OH A,G): > 500 nM

GGGNGNGGNGNGNNCGUUCUNCNNNNNNNNNNNNNNNNNNNNNNNNNNNNNNCGCUGUCGNUCGNUCGNUCGNUG [PDGF-BB rGmH round 10 pool]
Kd (PDGF-BB (Homo sapiens)): > 950 nM
